From article PMC3474823

Target: HA-LIMK2 (pcDNA3-(HA)2-LIMK2) (UniProt P53671)
Chain of UniProt P53671 (P53671 whole entry): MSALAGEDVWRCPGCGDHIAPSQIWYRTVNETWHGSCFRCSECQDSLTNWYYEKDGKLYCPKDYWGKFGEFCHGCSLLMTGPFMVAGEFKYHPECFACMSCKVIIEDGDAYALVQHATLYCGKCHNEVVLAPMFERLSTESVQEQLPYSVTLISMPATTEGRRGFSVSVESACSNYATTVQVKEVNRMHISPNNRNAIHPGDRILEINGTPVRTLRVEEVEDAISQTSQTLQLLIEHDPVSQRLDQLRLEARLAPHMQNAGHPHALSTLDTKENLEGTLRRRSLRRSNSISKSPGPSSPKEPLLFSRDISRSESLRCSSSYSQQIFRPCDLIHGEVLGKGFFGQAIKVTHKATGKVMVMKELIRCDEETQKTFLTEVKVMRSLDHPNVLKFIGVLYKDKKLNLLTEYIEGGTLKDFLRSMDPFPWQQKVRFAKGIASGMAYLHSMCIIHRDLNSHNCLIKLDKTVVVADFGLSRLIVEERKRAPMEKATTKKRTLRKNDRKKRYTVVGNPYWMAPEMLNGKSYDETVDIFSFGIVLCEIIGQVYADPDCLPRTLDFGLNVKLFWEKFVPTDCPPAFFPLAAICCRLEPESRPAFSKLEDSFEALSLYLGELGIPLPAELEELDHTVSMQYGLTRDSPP

**Q.** With “flag-SecPH (p3XFlag-SecPH) (domain or fragment)” as the substance, how does the kinase activity of anti-HA-LIMK2 immunoprecipitate on GST-cofilin (32P, P-cofilin), cells cotransfected with SecPH against the control Galectin-3 read?
**A.** 20%
